The nature of the data set: label from the status in PepcDB records.
With “MLCLHAPSRCEAAPAFPHTYSHYSEQEQLTALLADFGRTQGLATSFSPGVTGTVSGRFEDVAPEKFLQGMKAAFGVSWYRLGPTLHFYHEAETTRIFISPRVMSAESLYRMLRQSSVLSPQLPAELMPGGAMVVVSGPPAYLDQIQAAVTAFEEAQTGNFGMKVFPLKYAWAEDITVNSMDKTVTLPGVASILRAMVSGSPSSATRVTQETATVDKLSGTGLISQGRQQKESGQSNQAQRGGQASQQDSGGAQDGQQVSIMADPRVNAVIVHDAVYRMPYYESVIGDLDRPVELVEIHAAIVDIDTNFKRDLGVTYQATVGKDQRWAGGADVSTGTDKFTPLPVPGVPQGSGLTLSTIYTMGSDYFLARINALEKNGEARMLGRPSVLTVDNVQATLENTSTYYIQVQGYQAVDLFKVEAGTVLRVTPHIINNDDGTDAIKLVVSVQDDQNNQTTPTSTSTTQAIPPIKQTKINTQAIIGAGQSLLIGGYYYEQKATSADGVPILMNIPVLGNLFKTQSKENKRMERLILITPKVVRLDNLPGTPPRVDDPAFHRTATQSDYAERTPTPPPSRRSGCSRAPDNAPEAASGAAGGTGGTGVTANTEGGTTPQAATSPVPAYGVAP”, the protein production entry is listed as “failed”. Turning to “MTTILTVFTHAGGAGKTSIAGNIAHEFAQRGQHVLLIDGDPQSNLTTNMGVQDAELHETLFDVLSGDAPLPAPRHVHGFDLIPAVIDLAEVEPSIPGRVGGILALRDALQKESGRWDTVIIDSPPSLGQLAAACALAADALVVPIMTRSKGLNALRGLNRVMPQYHRLRPDLHVAAYVPTMCKSNRKEDSELLGIVREDLPHVTSPIVERGAVWNGAAEKGLPVTVFAPRSKEAEEIRKITSDLVEFLQRNAPERGER”, the protein production entry is given as “failed”. On to “MIDLKKIKRFAQEIHDKNNDGHGFDHIERVVALARKILLTEPSANQELVLATYLHDTYDEKLTDDVPKQKVKVAQFLNELKIDKKLIDELFMIIDNMSFSSNLIERKTLSLNGQIVQDADRLDAMGAWGIVRTLEYGWAKNRVFYDPNLPPLDYNSKEDYHSQKNNSTLNHFYEKLFLLKDLLNTTEGKRLGEKRDKIMHLFVSQIEEEYKETHLLEHHHHHH”, for which the protein production entry was “failed”. For the sequence “MKELNLTQGSVPKVLLQYAVPFLIANVLQALYGGADLFVVGQYDDSASVAAVAIGSQVMQTITGIILGITTGTTVLIAIATGAKDDKKVAFTIGSSVWLFSIIGVLLTLVMVVFHGRIAELMHTPIEAMADTKSYILVCSAGILFIVGYNVVCGILRGLGDSKTPLYFVALACVINIVLDFILVGYFHLGATGAAVATITAQGVSFMISLWFLYRHGFHFEFTRKDIRLNRNLAKKVMTLGAPIALQDALINISFLIITVIVNQMGVIASASLGVVEKIIVFAMLPPMAISSAVATMTAQNYGAGLIQRMNRCLASGIGIAFVFGVSVCVYSQFLPETLTAFFTKDAAVVSMAAEYLRGYSIDCIVVSFVFCINSYFSGQGNSLFPMIHSLIATFLFRIPLSYWFSQIDSSSLFIMGFAPPLSTVVSLLICIWYLRYTRKKVYLKGTMMPAMSN”, the protein production result is “failed”. For “MVPPRVSLLLRAETVVRPSVSAFPRKLPLVDMTAADALVGTTLAHRYRVESKIANGGMATVFLAHDLRLDRRVALKVMHANLARDPQFVQRFINEALAVAKLSHPNVVQVYDQGSDQGHVYLAMEYVAGQTLRAALKARTRFSPAEALRIMVPILAGLGAAHQAGMVHRDMKPENVLITHDGQIKVADFGLARAAEASQQGLTKTGTLMGTAAYLSPEQITHSTADARSDVYACGIMLYELLTGRQPHTGDSPIAVAYQHVNEDVPRPSRVVPGIPPEVDSLVVRATERDPAYRLANAGQFLAAVFAAQKALDEQPSAAVTSVMEMAPAPAGDTAEDSDNATRTLQGVELPPVEYDDYEDDRPPRPSLRTPLLVATVLLLVVAVGFGWWMVDGRYETVPDLVGVESDEARRDLRMLGFRVQTAEEPAYSDEAPPGTVAATDPEAGSRLLPDTLVTLILSAGPQYVEMPDVEGASVAEARDALKEVGLTDIVEDEITSFDNPPGTVITTKPAPGEKANREESVTLTISAGFPMPNVVGQKVDDARRLLESSDLEVTVVEEHHDEVPEGHVISQEPEAETTVGAGQSVTLTVSSGPELVEVPDIRGWKVDKARKELEERGFEVTVHQVIGNRVGDYNPKGEAPKGSTIEIWTSPFGRERDRDRGREDRLWIGLD”, the protein production result is listed as “failed”. Then “MSLDALTTLPIKKHTALLNRFPETRFVTQLAKKRASWIVFGHYLTPAQFEDMDFFTNRFNAILDMWKVGRYEVALMDGELTSEHETILKALELDYARIQDVPDLTKPGLIVLDMDSTAIQIECIDEIAKLAGVGEEVAEVTERAMQGELDFEQSLRLRVSKLKDAPEQILSQVRETLPLMPELPELVATLHAFGWKVAIASGGFTYFSDYLKEQLSLDYAQSNTLEIVSGKLTGQVLGEVVSAQTKADILLTLAQQYDVEIHNTVAVGDGANDLVMMAAAGLGVAYHAKPKVEAKAQTAVRFAGLGGVVCILSAALVAQQKLSWKSKEGHHHHHH”, with “not failed”; and “MDFSPPTTTADQSRRGFLKKSLAVSATVAAIGSLPRLSAAEPLTQRYPDPLVGVLDDSFLDIRIFNASVEKLATGMRWAEGPVWVGDGRYLLVSDIANNRIMRWDEVTGALSVYREHSNFSNGMCRDRQGRLLVCEGSSTTSEGRRVTRTEYNGRITVLADSFDGKPFNSPNDIVCKHDGSIWFTDPTFQANSDYEGHKVKQEQPFGVYRIDPSSGKVSRVIDDLAGPNGLCFSPDEKTLYVVEGRAKPNGLIWAIAVNEDGTLGERRKHVEGLEYAAIDGIKCDESGNLWCGWGGNGNPKADLEKLDGVRVFNPQGKAIGHISLPERCANLCFGGREGNRLFMASSHSLYSVFVNARGATLA”, with “failed”. With “MTELTILLGLAAAGYGVSHWTQLPAIPFLLMGGLALNATGAVGDAGFVEDVLFLSVSILLFVAGTDLSLTRVGPFKKTAFVIGVAQFAGLAAAALGIAYGLDYALTDALYLGLALAASSTIVGVRLLQRRQQMFEPYGRTVLGALLLQDVIVVLLLPLLVRLPDGSAAVLGSLGGTIVLLVGVGVVMKGVVPLLLKRELDAETQLLAVLGVLFGFMGAAAWLDVPLFAAAFLAGVSLSGFPFSGIVHSEMQPLYDFFSALFFASLGVAAPQPAPVLFGHAALFAGAVLVLTPLIVAVVGAWAGLVAQSALESGLLLAQTSELSLVVGLQALVAGQIGGEVFSVIVLTTVFTMMLTPLLTSETVVWELVRWHPSRQSDVLSEVPSNHVLVVGGGRSARPLLRLLRESKYEAVVVDEDPTVVDRLRDQGVRCVRGDGSDRAVLLKAGGAQARIVVSLLRNPKAVESLLDYVGDTVPILVRVFEDHEAEWVEARGGTPIRFAHAASDAFMEWFRRAQSARSKQPPSGT”, the protein production result is “failed”. For “MEGLEAYDYHLPPEQIAQEGVEPRDMARLMVVYREGPFRVAHKRVRDLPEFLRPGDVLVFNESKVIPARLLARKPTGGKVEILLVRERSPGLWEALLGPARKAPPGTRLLLLSPKDLAPVPGLQAEVVAVEEDGVRLLRFQGDLVAHLEEVGEVPLPPYIKAKIPMERYQTVYARRPGSVAAPTAGLHFTPELLERLREMGVELRFLTLHVGPGTFRPVKGDPEKHEMHAEPYAIPEEVAEAVNRAKAEGRRVVAVGTTVVRALESAYREGVGVVAGEGETRLFIRPPYTFKVVDALFTNFHLPRSTLLMLVAAFLGRERTLEAYRLAVAEGYRFYSLGDAMLIL”, the protein production entry is on record as “not failed”. For “MAMAVSGAVLSGLGSSFLTGGKRGATALASGVGTGAQRVGRKTLIVAAAAAQPKKSWIPAVKGGGNFLDPEWLDGSLPGDFGFDPLGLGKDPAFLKWYREAELIHGRWAMAAVLGIFVGQAWSGVAWFEAGAQPDAIAPFSFGSLLGTQLLLMGWVESKRWVDFFNPDSQSVEWATPWSKTAENFANYTGDQGYPGGRFFDPLGLAGKNRDGVYEPDFEKLERLKLAEIKHSRLAMVAMLIFYFEAGQGKTPLGALGL” the value was “failed”. Then “MEFDKSVQNYLIGANFSSGLVLDISKKENYILDRISILEQLSKDKKIIHLGCCDHIPLIQNKIENNTWLHSRLCSNSKRCIGVDINKDGIKYLKNNLGYEDVLCGDIIEEELNAIKEEHWDYMILGEILEHIDNPCLFLSDVQKKYHGIVDRLVITVPNALSYQNMKYTFLNKEYINTDHRYWFTPYTLGKIVTLAGMEVEKFFFCVPFPRDNGVFYALNPKSILFDFICKRYPPTRETLLMVAVV”, with “failed”; and “MPTTRKENLQFGMMMCLGMVIVMTFYNLLMNETGGPIYIKEIALELLIGFIIALLIEISIVGPCAKKIVFMLPFDKSKKINIIVAMATTMVIGMVFFMSFFGMAMMHLHGGLQGASFVSIYFSIFIKNFIMAYPLQLIIMGPLVRFLFAKFVMKKKSFNVA”, with “failed”.

“MPKLLIPAIIFITLALIFYTIGVWSEHRAGILKKKHVIIFWCGLVCDTLGTYTMSRIVAAGTDKGITPTDLLIHQSTGMLAIILMLIHAVWATIVLNRGSEKAKAIFHKFSLVVWFIWLIPYFVGMYIGMTS”: the protein production entry is given as “failed”. Turning to “MELVHGISTHFIQSKKFKTNKITVRFTAPLSLDTIAGHMLSASMLETANQMYPTSQDLRRHLASLYGTDMSTNCFRRGQSHIIELTFTYVRDEFLSRKNVLTSQILELVKETLFSPVVVDNGFDPALFEIEKKQ”, the protein production entry is “failed”. In the case of “MKRGNEENNHKTSSSSSTQRLSRRKISAGEKSGNVNIPLDLTVEILKKLPAKSLLRFQCVSKQWLSIISSRRDFIDSIVTRSLTQPPPRDIKLIFHHQVLYPGPHFFIFSSTYPQNTDKESLTTRASSYHYVRGLICCWSHCPTTVDIYNPTTRQYYTVPDTNRYQYIETCFFGYDPVENQYKVMVLPKYYMEESPCQVFTVGDPIEKPWRDIQGIGVHFLLKDAVCINGVIYYQATNEYGSTYFLVSFDVRSEKFNHVKAPKILTDHPCTLINYQGKLGLIMCCKKGLEIWVMEDAEKKQD”, the protein production result is recorded as “failed”. For “MDYRQLHRWDLPPEEAIKVQNELRKKIKLTPYEGEPEYVAGVDLSFPGKEEGLAVIVVLEYPSFKILEVVSERGEITFPYIPGLLAFREGPLFLKAWEKLRTKPDVVVFDGQGLAHPRKLGIASHMGLFIEIPTIGVAKSRLYGTFKMPEDKRCSWSYLYDGEEIIGCVIRTKEGSAPIFVSPGHLMDVESSKRLIKAFTLPGRRIPEPTRLAHIYTQRLKKGLFLEHHHHHH” the value was “not failed”; for “MKICAVVVTYNRKDLLVECLEALRRQTGPLDAIYIIDNASTDGTPHLLMEGGYIDDPDGSVKNLPDHHGRSLKIVYVRLNENTGGAGGFYKGVRRAFHDEYDWIWLMDDDVEPEEYTLEKLLKASERIPEDVSAVAPVRFFQGSLFISETKTFNFRNPLKHFTYDFITDDDLKEEYFKISAISFEGLLIKREAIERIGFPDKSLFIIADDTDYAIRLRDYGPIYMVSGARLIKKVAAEPDFNWKGFYHLRNVIYLDRKYGENILVRYLRPLRTLIIVTYQCLKYKPSGFKYLLKAFWEGYTLKRGKTVKPGEFLEHHHHHH”, “not failed”; for “MDFFAIDPIGLPHTSLIFYLSSLLIALLLVFLTFQAYRLKSHRYFFLFLQLSQVIGLYTWYVLRGFPLDEALPLYHCRIAMLAIFFLPDRNKFKQLFMVLGIGGTFLALLSPDLYPFRLWHVANVSFYFGHYALLVNGLIYLLRFYDASQLRLLSVVRYLATVNFLLLLVSLATKGNYGFVMDIPVIHTRHLLLNFVIVTSGLTFMVKITEYFYLKFGEAQQLALAFSKEK”, “failed”. “SLFVKESHNTSKGPEATWNLNKVHFVYDSSEKTHFKAPVKVNKYIASSHHLSALVTPAGMSYECQAQQTISLASSDPQKTVTMILSAVHIQPFDIISDFVFSEEHKCPVDEQEQLEETLPLILGLILGLVIVITLVIYHIHHKMTANQVQIPRDRSQYKHMG”: the protein production entry is listed as “failed”.

Source of the values: a protein production outcome set (Wang et al. 2014).
